Laboratory results as given in paper PMC2756588.

Experiments:
Assay in all cases: SPOT array
Abp1, P15891 = molecular target: T1, Abp1, P15891; conditions: median of control spots 935
T1 sequence (P15891 535-592, looked up): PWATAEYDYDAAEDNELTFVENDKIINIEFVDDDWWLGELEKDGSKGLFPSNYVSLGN

Bbc1, P47068 = molecular target: T2, Bbc1, P47068; conditions: median of control spots 796
T2 sequence (P47068 1-78, looked up): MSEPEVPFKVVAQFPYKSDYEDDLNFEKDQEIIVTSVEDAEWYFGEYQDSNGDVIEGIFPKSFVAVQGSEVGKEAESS

Bem1-1, P29366 = conditions: median of control spots 4282
Sequence of Bem1-1, P29366 (P29366 55-141): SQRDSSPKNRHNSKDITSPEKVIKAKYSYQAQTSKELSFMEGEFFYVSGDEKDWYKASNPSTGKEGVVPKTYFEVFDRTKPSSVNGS

Bem1-2, P29366 = conditions: median of control spots 4347
Sequence of Bem1-2, P29366 (P29366 139-227): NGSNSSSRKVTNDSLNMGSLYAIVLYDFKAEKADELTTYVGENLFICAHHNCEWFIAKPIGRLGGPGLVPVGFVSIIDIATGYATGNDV

Boi1, P38041 = molecular target: T3, Boi1, P38041; conditions: median of control spots 1162
T3 sequence (P38041 1-86, looked up): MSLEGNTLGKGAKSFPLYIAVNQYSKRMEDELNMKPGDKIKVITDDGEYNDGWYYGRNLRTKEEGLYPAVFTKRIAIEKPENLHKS

Boi2, P39969 = molecular target: T4, Boi2, P39969; conditions: median of control spots 1161
T4 sequence (P39969 32-116, looked up): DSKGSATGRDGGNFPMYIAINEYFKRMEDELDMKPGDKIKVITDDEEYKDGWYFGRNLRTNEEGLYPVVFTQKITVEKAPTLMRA

Bud14, P27637 = molecular target: T5, Bud14, P27637; conditions: median of control spots 956
T5 sequence (P27637 247-328, looked up): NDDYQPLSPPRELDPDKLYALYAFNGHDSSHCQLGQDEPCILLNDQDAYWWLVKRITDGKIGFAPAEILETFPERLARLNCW

Bzz1-1, P38822 = molecular target: T6, Bzz1-1, P38822; conditions: median of control spots 4446
T6 sequence (P38822 478-572, looked up): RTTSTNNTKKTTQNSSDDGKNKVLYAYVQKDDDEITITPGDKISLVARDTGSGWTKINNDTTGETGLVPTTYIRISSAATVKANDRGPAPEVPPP

Bzz1-2, P38822 = molecular target: T7, Bzz1-2, P38822; conditions: median of control spots 4538
T7 sequence (P38822 568-633, looked up): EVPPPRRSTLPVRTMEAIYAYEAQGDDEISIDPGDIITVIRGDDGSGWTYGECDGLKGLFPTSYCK

Cdc25, P04821 = molecular target: T8, Cdc25, P04821; conditions: median of control spots 969
T8 sequence (P04821 50-136, looked up): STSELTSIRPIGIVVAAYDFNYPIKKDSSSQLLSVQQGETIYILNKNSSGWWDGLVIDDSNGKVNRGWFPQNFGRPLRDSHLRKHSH

Cyk3, Q07533 = molecular target: T9, Cyk3, Q07533; conditions: median of control spots 1451
T9 sequence (Q07533 1-83, looked up): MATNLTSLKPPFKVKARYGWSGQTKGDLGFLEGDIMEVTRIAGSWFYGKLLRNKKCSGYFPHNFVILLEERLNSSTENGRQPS

Fus1, P11710 = molecular target: T10, Fus1, P11710; conditions: median of control spots 1200
T10 sequence (P11710 432-512, looked up): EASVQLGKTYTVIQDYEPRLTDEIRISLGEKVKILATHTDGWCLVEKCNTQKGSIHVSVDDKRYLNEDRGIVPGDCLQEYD

GST = conditions: median of control spots 978
Hof1, Q05080 = molecular target: T11, Hof1, Q05080; conditions: median of control spots 4086
T11 sequence (Q05080 590-669, looked up): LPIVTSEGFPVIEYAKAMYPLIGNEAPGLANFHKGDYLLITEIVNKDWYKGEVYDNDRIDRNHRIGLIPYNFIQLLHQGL

Hse1, P38753 = molecular target: T12, Hse1, P38753; conditions: median of control spots 1727
T12 sequence (P38753 208-285, looked up): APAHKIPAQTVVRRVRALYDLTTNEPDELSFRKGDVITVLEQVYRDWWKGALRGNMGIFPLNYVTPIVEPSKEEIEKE

Lsb1, P53281 = molecular target: T13, Lsb1, P53281; conditions: median of control spots 388
T13 sequence (P53281 45-122, looked up): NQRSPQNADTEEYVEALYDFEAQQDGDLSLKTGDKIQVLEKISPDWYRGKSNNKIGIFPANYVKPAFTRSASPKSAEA

Lsb3, P43603 = molecular target: T14, Lsb3, P43603; conditions: median of control spots 406
T14 sequence (P43603 385-451, looked up): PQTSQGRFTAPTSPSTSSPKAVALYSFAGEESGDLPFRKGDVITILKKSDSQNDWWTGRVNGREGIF

Lsb4, P32793 = molecular target: T15, Lsb4, P32793; conditions: median of control spots 397
T15 sequence (P32793 402-468, looked up): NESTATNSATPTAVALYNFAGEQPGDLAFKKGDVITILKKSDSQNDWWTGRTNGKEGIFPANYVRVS

Myo3, P36006 = conditions: median of control spots 468
Myo5, Q04439 = molecular target: T16, Myo5, Q04439; conditions: median of control spots 471
T16 sequence (Q04439 1072-1160, looked up): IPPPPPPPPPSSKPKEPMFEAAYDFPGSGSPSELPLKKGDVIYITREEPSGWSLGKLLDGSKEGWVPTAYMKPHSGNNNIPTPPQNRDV

Nbp2, Q12163 = molecular target: T17, Nbp2, Q12163; conditions: median of control spots 357
T17 sequence (Q12163 103-180, looked up): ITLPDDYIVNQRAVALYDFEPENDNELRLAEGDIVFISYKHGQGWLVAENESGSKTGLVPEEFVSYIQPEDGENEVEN

Pex13, P80667 = molecular target: T18, Pex13, P80667; conditions: median of control spots 1341
T18 sequence (P80667 295-386, looked up): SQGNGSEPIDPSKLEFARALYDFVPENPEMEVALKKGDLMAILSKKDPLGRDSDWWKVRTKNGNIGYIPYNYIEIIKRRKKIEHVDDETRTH

Pin3, Q06449 = molecular target: T19, Pin3, Q06449; conditions: median of control spots 2171
T19 sequence (Q06449 53-122, looked up): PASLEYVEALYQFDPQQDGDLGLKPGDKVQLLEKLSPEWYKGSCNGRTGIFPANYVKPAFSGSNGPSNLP

Rvs167, P39743 = conditions: median of control spots 2707
Sequence of Rvs167, P39743 (P39743 419-482): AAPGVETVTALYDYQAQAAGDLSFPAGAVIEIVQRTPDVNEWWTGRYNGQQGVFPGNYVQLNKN

Sho1, P40073 = conditions: median of control spots 1148
Sequence of Sho1, P40073 (P40073 287-367): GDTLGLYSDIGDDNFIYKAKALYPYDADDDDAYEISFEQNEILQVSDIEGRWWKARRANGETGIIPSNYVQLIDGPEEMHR

Sla1-2, P32790 = molecular target: T20, Sla1-2, P32790; conditions: median of control spots 712
T20 sequence (P32790 60-140, looked up): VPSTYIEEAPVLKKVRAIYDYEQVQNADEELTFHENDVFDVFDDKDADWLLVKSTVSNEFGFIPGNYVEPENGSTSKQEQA

Sla1-3, P32790 = molecular target: T21, Sla1-3, P32790; conditions: median of control spots 5475
T21 sequence (P32790 344-424, looked up): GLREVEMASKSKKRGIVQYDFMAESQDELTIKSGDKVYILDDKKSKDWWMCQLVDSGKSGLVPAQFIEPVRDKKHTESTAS

QPWTDQFEKLEKEVS
SPOT intensity (Abp1, P15891): 0 | SPOT intensity (Bbc1, P47068): 0 | SPOT intensity (Bem1-1, P29366): 0 | SPOT intensity (Bem1-2, P29366): 0 | SPOT intensity (Boi1, P38041): 0 | SPOT intensity (Boi2, P39969): 0 | SPOT intensity (Bud14, P27637): 2 | SPOT intensity (Bzz1-1, P38822): 5 | SPOT intensity (Bzz1-2, P38822): 1 | SPOT intensity (Cdc25, P04821): 4 | SPOT intensity (Cyk3, Q07533): 0 | SPOT intensity (Fus1, P11710): 0 | SPOT intensity (GST): 0 | SPOT intensity (Hof1, Q05080): 1 | SPOT intensity (Hse1, P38753): 0 | SPOT intensity (Lsb1, P53281): 0 | SPOT intensity (Lsb3, P43603): 0 | SPOT intensity (Lsb4, P32793): 0 | SPOT intensity (Myo3, P36006): 0 | SPOT intensity (Myo5, Q04439): 0 | SPOT intensity (Nbp2, Q12163): 0 | SPOT intensity (Pex13, P80667): 0 | SPOT intensity (Pin3, Q06449): 0 | SPOT intensity (Rvs167, P39743): 0 | SPOT intensity (Sho1, P40073): 0 | SPOT intensity (Sla1-2, P32790): 0 | SPOT intensity (Sla1-3, P32790): 0
